These results are taken from patent US20180325997A1.

For the assay, the target named is hTERT (human telomerase reverse transcriptase) (human) (UniProt O14746). Kind of assay: cell-based or functional assay.
Sequence of hTERT (human telomerase reverse transcriptase) (human) (O14746 whole entry): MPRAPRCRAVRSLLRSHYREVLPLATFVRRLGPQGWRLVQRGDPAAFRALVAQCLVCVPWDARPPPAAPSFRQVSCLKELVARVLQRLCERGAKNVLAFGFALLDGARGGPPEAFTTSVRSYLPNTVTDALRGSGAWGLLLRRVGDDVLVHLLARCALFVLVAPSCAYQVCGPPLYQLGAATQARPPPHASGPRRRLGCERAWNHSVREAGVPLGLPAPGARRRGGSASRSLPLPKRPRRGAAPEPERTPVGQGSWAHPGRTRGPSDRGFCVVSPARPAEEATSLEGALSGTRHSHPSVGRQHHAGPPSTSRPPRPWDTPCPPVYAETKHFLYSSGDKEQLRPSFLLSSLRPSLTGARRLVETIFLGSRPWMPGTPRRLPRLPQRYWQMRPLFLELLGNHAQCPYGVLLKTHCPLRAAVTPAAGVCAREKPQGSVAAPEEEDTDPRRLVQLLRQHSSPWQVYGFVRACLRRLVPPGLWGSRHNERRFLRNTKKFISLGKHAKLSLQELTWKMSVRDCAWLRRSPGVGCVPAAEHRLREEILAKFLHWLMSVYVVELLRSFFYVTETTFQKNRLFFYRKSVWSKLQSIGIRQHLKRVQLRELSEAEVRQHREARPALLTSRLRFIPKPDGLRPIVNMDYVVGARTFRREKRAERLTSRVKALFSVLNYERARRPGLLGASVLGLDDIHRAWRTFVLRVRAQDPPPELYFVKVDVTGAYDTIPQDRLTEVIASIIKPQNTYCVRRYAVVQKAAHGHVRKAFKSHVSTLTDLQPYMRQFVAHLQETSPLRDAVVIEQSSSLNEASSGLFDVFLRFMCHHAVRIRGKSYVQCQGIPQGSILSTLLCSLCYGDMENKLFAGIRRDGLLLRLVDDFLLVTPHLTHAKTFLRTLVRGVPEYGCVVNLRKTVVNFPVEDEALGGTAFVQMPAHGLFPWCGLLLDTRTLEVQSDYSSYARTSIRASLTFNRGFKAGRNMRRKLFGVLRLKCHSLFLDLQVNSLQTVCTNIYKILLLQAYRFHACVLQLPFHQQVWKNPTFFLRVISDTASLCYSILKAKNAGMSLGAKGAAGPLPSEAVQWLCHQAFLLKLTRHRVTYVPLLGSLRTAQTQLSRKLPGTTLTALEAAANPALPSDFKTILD

“LRP102-295::FLAG fragment (from UniProt P14206 102-295) (receptor)” returned a relative telomerase activity (TRAPEZE kit, real time PCR) in transfected MRC 5 cells against non-transfected cells of 83.4 % elevation.
